Results reported in paper PMC9279676, “ERK2 MAP kinase regulates SUFU binding by multisite phosphorylation of GLI1” (Life Science Alliance, 2022).
Substitutions are numbered along the chain they refer to.

Tests used:
[1] = target: T1, full-length GLI1 S102E S116E S130E, 35S-radiolabeled (human, UniProt P08151-1 1-1106, S102E | S116E | S130E, [35S]-methionine label); experiment: pull-down; purified GST-SUFU, 1.25-80 nM, captured on glutathione-Sepharose beads; ∼1 pmol 35S-GLI1 (1-232 or full length) in 200 μl; 15 min at 30°C, then 1 h at room temperature; Binding Buffer + 1 mg/ml BSA; bound GLI1 quantified by SDS-PAGE and Phosphorimager; Kd from binding isotherms; settings: one partner purified
T1 construct: human GLI1, full length (1,106 residues); also called FL-GLI1^EEE; GLI1^EEE; source: in vitro transcription/translation, partially purified by ammonium sulfate precipitation
T1 sequence (looked up): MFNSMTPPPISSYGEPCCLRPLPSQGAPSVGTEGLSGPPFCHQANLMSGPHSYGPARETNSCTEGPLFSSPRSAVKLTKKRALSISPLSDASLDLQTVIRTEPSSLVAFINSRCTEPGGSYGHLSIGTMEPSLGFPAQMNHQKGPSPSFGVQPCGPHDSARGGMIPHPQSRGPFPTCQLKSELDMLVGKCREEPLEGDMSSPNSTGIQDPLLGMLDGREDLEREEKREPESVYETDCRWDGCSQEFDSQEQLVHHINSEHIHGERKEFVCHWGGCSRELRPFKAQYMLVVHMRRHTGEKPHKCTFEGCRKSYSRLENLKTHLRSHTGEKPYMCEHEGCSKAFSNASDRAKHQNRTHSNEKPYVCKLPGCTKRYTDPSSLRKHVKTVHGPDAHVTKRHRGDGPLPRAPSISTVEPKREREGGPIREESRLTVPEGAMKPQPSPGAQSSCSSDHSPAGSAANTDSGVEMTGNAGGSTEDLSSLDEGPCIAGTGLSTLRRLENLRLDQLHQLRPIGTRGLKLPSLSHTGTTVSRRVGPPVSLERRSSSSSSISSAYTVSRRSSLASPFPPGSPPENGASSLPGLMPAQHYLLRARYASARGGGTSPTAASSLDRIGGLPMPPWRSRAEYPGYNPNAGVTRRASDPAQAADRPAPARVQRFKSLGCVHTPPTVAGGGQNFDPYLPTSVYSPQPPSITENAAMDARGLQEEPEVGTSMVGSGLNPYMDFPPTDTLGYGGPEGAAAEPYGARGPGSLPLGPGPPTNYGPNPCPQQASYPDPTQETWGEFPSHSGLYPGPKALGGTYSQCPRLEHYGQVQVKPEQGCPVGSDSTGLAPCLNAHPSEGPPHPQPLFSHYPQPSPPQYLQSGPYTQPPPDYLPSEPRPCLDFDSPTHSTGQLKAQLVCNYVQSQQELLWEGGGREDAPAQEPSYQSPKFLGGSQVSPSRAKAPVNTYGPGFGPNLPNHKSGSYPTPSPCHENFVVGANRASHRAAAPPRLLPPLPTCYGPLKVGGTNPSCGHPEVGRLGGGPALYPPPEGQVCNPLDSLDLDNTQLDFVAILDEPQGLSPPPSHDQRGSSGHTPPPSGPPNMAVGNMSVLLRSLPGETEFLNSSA

[2] = target: T2, GLI1_(1-232) S116E S130E, 35S-radiolabeled (human, UniProt P08151-1 1-232, S116E | S130E, [35S]-methionine label)
T2 sequence: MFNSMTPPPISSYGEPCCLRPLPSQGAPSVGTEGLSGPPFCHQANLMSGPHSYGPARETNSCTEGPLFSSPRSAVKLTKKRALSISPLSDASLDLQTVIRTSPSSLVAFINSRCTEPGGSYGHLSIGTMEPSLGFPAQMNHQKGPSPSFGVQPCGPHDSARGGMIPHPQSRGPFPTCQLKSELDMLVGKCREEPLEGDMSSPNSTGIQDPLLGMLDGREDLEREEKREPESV

[3] = target: T3, GLI1_(1-232) S116E, 35S-radiolabeled (human, UniProt P08151-1 1-232, S116E, [35S]-methionine label)
T3 sequence: T2 sequence with E130S

[4] = target: T4, GLI1_(1-232) S102E S130E, 35S-radiolabeled (human, UniProt P08151-1 1-232, S102E | S130E, [35S]-methionine label)
T4 sequence: T2 sequence with S102E, E116S

[5] = target: T5, GLI1_(1-232) S102E S116E S130E, 35S-radiolabeled (human, UniProt P08151-1 1-232, S102E | S116E | S130E, [35S]-methionine label)
T5 sequence: T2 sequence with S102E

Kd [1]: 42 ± 8 nM | Kd [2]: 19 nM | Kd [3]: 7 nM | Kd [4]: 300 nM | Kd [5]: 520 nM
B1: GST-SUFU (fusion of GST to full-length human SUFU) (natural protein, UniProt Q9UMX1-1 1-484, looked up)
chain: MAELRPSGAPGPTAPPAPGPTAPPAFASLFPPGLHAIYGECRRLYPDQPNPLQVTAIVKYWLGGPDPLDYVSMYRNVGSPSANIPEHWHYISFGLSDLYGDNRVHEFTGTDGPSGFGFELTFRLKRETGESAPPTWPAELMQGLARYVFQSENTFCSGDHVSWHSPLDNSESRIQHMLLTEDPQMQPVQTPFGVVTFLQIVGVCTEELHSAQQWNGQGILELLRTVPIAGGPWLITDMRRGETIFEIDPHLQERVDKGIETDGSNLSGVSAKCAWDDLSRPPEDDEDSRSICIGTQPRRLSGKDTEQIRETLRRGLEINSKPVLPPINPQRQNGLAHDRAPSRKDSLESDSSTAIIPHELIRTRQLESVHLKFNQESGALIPLCLRGRLLHGRHFTYKSITGDMAITFVSTGVEGAFATEEHPYAAHGPWLQILLTEEFVEKMLEDLEDLTSPEEFKLPKEYSWPEKKLKVSILPDVVFDSPLH
notes: human SUFU, full length (residues 1-484), BamHI-SUFU-SalI cassette in pGEX-LB; pGEX-LB carries a Gly-Gly-Gly-Gly-Gly-Ser-Gly stretch between GST and the fused protein; also called full-length GST-SUFU; source: Escherichia coli, purified (glutathione-Sepharose); not shown: GST, N-terminal, kept
